From patent publication US20260049134A1 (UNIVERSITY OF FLORIDA RESEARCH FOUNDATION, published 2026)
Numbering of substitutions follows the chain as printed. Names and notes keep the numbering of the source.

T1: GARS-His (Sino Biological) (human, UniProt P41250 37-739, limits assumed)
T1 construct: Bought; also called GARS1; glycyl-tRNA synthetase; not shown: His tag of the bought protein
T1 sequence: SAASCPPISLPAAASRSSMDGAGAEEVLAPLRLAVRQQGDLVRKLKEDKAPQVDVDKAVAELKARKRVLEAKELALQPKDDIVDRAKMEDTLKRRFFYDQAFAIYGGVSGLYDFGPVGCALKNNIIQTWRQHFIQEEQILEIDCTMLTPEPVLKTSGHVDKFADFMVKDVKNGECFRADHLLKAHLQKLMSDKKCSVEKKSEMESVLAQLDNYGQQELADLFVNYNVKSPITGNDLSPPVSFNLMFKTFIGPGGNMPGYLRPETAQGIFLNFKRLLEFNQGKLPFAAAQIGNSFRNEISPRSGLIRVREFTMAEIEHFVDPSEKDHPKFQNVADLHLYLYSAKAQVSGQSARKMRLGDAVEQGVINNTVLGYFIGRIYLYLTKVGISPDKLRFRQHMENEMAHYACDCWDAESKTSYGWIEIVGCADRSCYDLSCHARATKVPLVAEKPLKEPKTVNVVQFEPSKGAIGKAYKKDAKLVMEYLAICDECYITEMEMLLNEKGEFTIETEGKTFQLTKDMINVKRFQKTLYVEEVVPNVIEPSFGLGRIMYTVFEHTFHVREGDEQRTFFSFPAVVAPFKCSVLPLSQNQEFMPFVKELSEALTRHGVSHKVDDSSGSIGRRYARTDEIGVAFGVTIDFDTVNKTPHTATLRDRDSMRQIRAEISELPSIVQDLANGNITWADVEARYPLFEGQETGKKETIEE

T2: GARS, endogenous in H929 multiple myeloma cells (human, UniProt P41250 37-739, limits assumed)
T2 construct: Native protein pulled down from H929 lysates; also called Glycyl-tRNA synthetase; GlyRS
T2 sequence: T1 sequence

B1: HW-8 chimeric rabbit-human IgG1 LA/LA/PG (antibody, V domains shown)
VH: QSLEESGGRLVTPGTPLTLTCTVSGFSLSSYAMSWVRQAPGKGLEWIGAISTGGSTTYASWAKGRFTISKTSSTTVDLKMTSLTTEDTATYFCVRHFRLWGPGTLVTISS
VL: QVLTQTPSSVSAAVGGTVTIKCQASQSIGSALAWFQQKPGQRPKLLIYRASNLASGVPSRFKGSGSGTEFALTISGVQREDAATYYCLGGAAAVWAFGAGTNVEIKR
notes: Fc-silenced (L234A/L235A/P329G) IgG1, kappa; Alexa Fluor 647-labeled in single-step flow cytometry; Cluster C-45
B2: HW-97 chimeric rabbit-human IgG1 LA/LA/PG (antibody, V domains shown)
VH: QKQLVESGGRLVTPGTPLTLTCTVTGIDLSSHGMSWVRQAPGKGLEWIGVIYPSGSTWYASWARGRFTISKTSTTVDLKMTSLTTEDTATHFCARGDVGGADNNIWGPGTLVTVSS
VL: SFVLTQPASVQVDLGQTVSLTCTAETLSRSYASWYQQKPGQAPVLLIYRDTSRPSGVPDRFSGSSSGNTATLTISGAQAGDEADYYCATSDGSGSSYQYVFGGGTQLTVTG
notes: Fc-silenced (L234A/L235A/P329G) IgG1, lambda; Alexa Fluor 647-labeled in single-step flow cytometry; Prototype of cluster C-97
B3: HW-101 chimeric rabbit-human IgG1 LA/LA/PG (antibody, V domains shown)
VH: QEQLVESGGRLVTPGTPLTLTCKASGFSLGKYDMSWVRQAPGKGLEWIGTIYAGSGSTWYASWAKGRFTISKTSTTVDLKMTSLTTEDTATYFCARDFLGVNSIWGPGTLVTISS
VL: B2 VL with D13N, E25D, G40D, Y48H, S65N, S96N, Y97F, Q98H, Y99F
notes: Fc-silenced (L234A/L235A/P329G) IgG1, lambda; Alexa Fluor 647-labeled in single-step flow cytometry; Cluster C-97
B4: HW-113 chimeric rabbit-human IgG1 LA/LA/PG (antibody, V domains shown)
VH: QKQLVESGGGLVQPGGSLTLTCTVSGFSLNKYYMGWFRQAPGKGLEWIGVISRSGDTYYSSWAKGRFTISKASTTVDLRITSPTTEDTATYFCARDASSPGFHGDRLDLWGQGTLVTVSS
VL: B2 VL with D13N, E25D, S93I, S96N, Q98L, Y99W
notes: Fc-silenced (L234A/L235A/P329G) IgG1, lambda; Alexa Fluor 647-labeled in single-step flow cytometry
B5: HW-28 chimeric rabbit-human IgG1 LA/LA/PG (antibody, V domains shown)
VH: QKQLVESGGRLVTPGTPLTLTCTASGFSLSSNAMSWVRQAPGEGLQWIGTISSGGSTYYASWAKGRFTISKTSTTVTLKMTSLTTEDTATYFCARGADLHRLWGPGTLVTVSS
VL: B2 VL with D13N, A24G, E25K, T26P, Y31F, L46V
notes: Fc-silenced (L234A/L235A/P329G) IgG1, lambda; Alexa Fluor 647-labeled in single-step flow cytometry; Cluster C-45
B6: HW-56 chimeric rabbit-human IgG1 LA/LA/PG (antibody, V domains shown)
VH: QSVKESEGGLFKPTDTLTLTCTASGFTVSTNAVTWVRQAPGNGLEYIGTIGRSGSAYFASWAKRRSTLTRDINLNTVTLKMTSLTAADTATYFCVRGSPGYRTAISIWGPGTLVTISS
VL: AVMTQTPSSTSAAVEGTVTINCQASQSISNRLSWFQQKPGQPPKLLIYQASTLASGVPSRFKGSGSGTEFTLTISGVQREDAATYYCLGSYSSSDASFGGGTKLEIKR
notes: as for B1
B7: HW-81 chimeric rabbit-human IgG1 LA/LA/PG (antibody, V domains shown)
VH: QKQLVESGGGLVTPGGTLTLTCTVSGFSLSSNGVSWVRQAPGKGLEYIGLIRSIGSTYYATWAKGRFTISKTSTTVDLKITSPTTEDTATYFCARGGYRNGFKLWGPGTLVTVSS
VL: QPVLTQSPSVSAALGASAKLTCTLSSAHKTYYIEWYQQQHPGKAPRYLMQLQSDGSYTKGTGVPDRFSGSSSGADRYLIISSVQAEDEADYICGVIDSAVYVFGGGTQLTVTG
notes: as for B5
B8: HW-16 chimeric rabbit-human IgG1 LA/LA/PG (antibody, V domains shown)
VH: QSLEESGGRLVTPGTPLTLTCTASGFSLSSYAMSWVRQAPGKGLEWIGTMPTGGGTYYASWAKGRFTISKTSTTVDLQITSPTTEDTATYFCAKHWNIWGPGTLVTISS
VL: DIVLTQTPSSTSTAVGDTVTINCRASQSIGRNLAWFQQKPGQPPKLLIYRASNLASGVPSRFKGSGSRTQFTLTISGVQREDAATYYCLGSYSSSDTAFGGGTELEILR
notes: as for B1
B9: HW-45 chimeric rabbit-human IgG1 LA/LA/PG (antibody, V domains shown)
VH: QKQLVESGGRLVTPGTPLTLTCTVSGFSLSSYAMGWFRQAPGKGLEWIGIINSYGSTYYASWAKGRFTISKTSTTVDLKITSPTTEDTATYFCGRRIGSARFDPWGPGTLVTVSS
VL: B2 VL with D13N, E25D, S52R, Q98R, Y99L
notes: Fc-silenced (L234A/L235A/P329G) IgG1, lambda; Alexa Fluor 647-labeled in single-step flow cytometry; Prototype of cluster C-45

Biological target: T3, PTP4A3
T3 construct: also called His-PTP4A3 (R&D Systems)
Experiment: ELISA on coated protein

T3 sequence (chain, as listed by the source limits assumed): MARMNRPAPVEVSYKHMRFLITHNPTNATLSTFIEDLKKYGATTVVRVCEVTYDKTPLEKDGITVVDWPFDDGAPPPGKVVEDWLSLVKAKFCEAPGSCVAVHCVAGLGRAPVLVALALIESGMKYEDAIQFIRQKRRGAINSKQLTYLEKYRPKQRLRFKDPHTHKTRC

B1: no binding (tested: 150 ng IgG1 per well).
B2: no binding (tested: 150 ng IgG1 per well).
B3: no binding (tested: 150 ng IgG1 per well).
B4: no binding (tested: 150 ng IgG1 per well).

Biological target: T1, GARS-His (Sino Biological)
Experiment: ELISA on coated protein

B2: no binding (tested: 150 ng IgG1 per well).
B3: no binding (tested: 150 ng IgG1 per well).
B4: no binding (tested: 150 ng IgG1 per well).

Biological target: T4, ICAM1-Fc (R&D Systems) (human, UniProt P05362 28-480)
T4 construct: Bought; also called ICAM-1/CD54; not shown: Fc of the bought fusion protein
Experiment: ELISA on coated ICAM1-Fc
Protocol: Recombinant purified ECDs (50-150 ng) of each putative target protein were coated, incubated with 150 ng of the indicated primary antibody, and binding was detected using a peroxidase-conjugated anti-human Fab secondary antibody. Heatmap represents averages of technical triplicates. (8B) Target validation via siRNA knockdown. H929 cells were transfected with siRNA pools targeting the putative antibody targets ICAM1, CADM1, and PTPRG. Cells were then subjected to cognate IgG binding analysis via flow cytometry. (NT, non-targeting siRNA).
ELISA ELISA was conducted as described previously. Briefly, 50-150 ng of antigen was coated overnight in half-area 96-well plates at 4° C., blocked with 3% BSA at 37° C. for 1 h, and 150 ng of chimeric rabbit/human IgG1 was added, incubating for 2 h at 37° C. […] After incubating at 37° C. for 15 min-1 h (depending on intensity of controls), data were acquired using a SpectraMax M5 plate reader (Molecular Devices).

T4 sequence (P05362 28-480): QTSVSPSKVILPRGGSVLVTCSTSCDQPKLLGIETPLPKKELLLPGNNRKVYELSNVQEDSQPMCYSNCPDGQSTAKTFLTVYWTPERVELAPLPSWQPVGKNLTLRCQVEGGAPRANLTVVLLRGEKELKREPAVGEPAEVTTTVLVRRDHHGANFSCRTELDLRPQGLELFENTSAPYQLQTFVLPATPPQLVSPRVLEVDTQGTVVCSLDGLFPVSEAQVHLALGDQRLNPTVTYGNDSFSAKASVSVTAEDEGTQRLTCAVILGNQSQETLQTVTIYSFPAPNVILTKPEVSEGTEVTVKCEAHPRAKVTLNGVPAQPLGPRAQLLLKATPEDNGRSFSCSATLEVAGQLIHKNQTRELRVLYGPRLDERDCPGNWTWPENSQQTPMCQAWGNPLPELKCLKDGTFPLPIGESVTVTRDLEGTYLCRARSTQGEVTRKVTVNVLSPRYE

B5: no binding (tested: 150 ng IgG1 per well).
B6: no binding (tested: 150 ng IgG1 per well).
B7: no binding (tested: 150 ng IgG1 per well).
B8: no binding (tested: 150 ng IgG1 per well).

Biological target: T2, GARS, endogenous in H929 multiple …
Experiment: flow cytometry, H929 + vehicle; None 513; surface target GARS putative

First: B1
Second: B5
The “mAb binding (MFI)” value of the first is lower: 16700 for the first, 44400 for the second.

Going from B6 to B7, the “mAb binding (MFI)” value rises from 481000 to 682000.

Going from B8 to B9, the “mAb binding (MFI)” value falls from 61100 to 25400.

Biological target: T2, GARS, endogenous in H929 multiple …
Experiment: flow cytometry, H929 + CADM1 siRNA; None 449; surface target GARS putative

First: B1
Second: B5
The “mAb binding (MFI)” value of the first is lower: 17000 for the first, 66800 for the second.

First: B6
Second: B7
The “mAb binding (MFI)” value of the first is lower: 547000 for the first, 696000 for the second.

Going from B8 to B9, the “mAb binding (MFI)” value falls from 45900 to 33400.

Biological target: T2, GARS, endogenous in H929 multiple …
Experiment: flow cytometry, H929 + CADM1 siRNA; None 0.89; surface target GARS putative

Going from B1 to B5, the “Cells stained (%)” value rises from 89.3% to 98.5%.

First: B6
Second: B7
The “Cells stained (%)” value of the first is lower: 99.6% for the first, 99.8% for the second.

Compared with B8, B9 is lower in “Cells stained (%)” value: 99% for the first, 97% for the second.

Biological target: T2, GARS, endogenous in H929 multiple …
Experiment: flow cytometry, H929 + ICAM1 siRNA; None 1.06; surface target GARS putative

First: B1
Second: B5
The “Cells stained (%)” value of the first is lower: 76.3% for the first, 96.9% for the second.

Compared with B6, B7 is lower in “Cells stained (%)” value: 99.2% for the first, 99.1% for the second.

Compared with B8, B9 is lower in “Cells stained (%)” value: 98.1% for the first, 95.1% for the second.

Biological target: T2, GARS, endogenous in H929 multiple …
Experiment: flow cytometry, H929 + PTPRG siRNA; None 2.13; surface target GARS putative

Going from B1 to B5, the “Cells stained (%)” value rises from 84.3% to 98.6%.

Going from B6 to B7, the “Cells stained (%)” value rises from 99.8% to 100%.

First: B8
Second: B9
The “Cells stained (%)” value of the first is higher: 98.2% for the first, 97.3% for the second.

Biological target: T2, GARS, endogenous in H929 multiple …
Experiment: flow cytometry, H929 + GARS siRNA (siRNA against the putative target); None 0.2

Going from B1 to B5, the “Cells stained (%)” value falls from 99% to 98.3%.

First: B6
Second: B7
The “Cells stained (%)” value of the first is higher: 99.9% for the first, 99.4% for the second.

Compared with B8, B9 is lower in “Cells stained (%)” value: 99.1% for the first, 98.5% for the second.

Biological target: T2, GARS, endogenous in H929 multiple …
Experiment: flow cytometry, H929 + GARS siRNA (siRNA against the putative target); None 452

First: B1
Second: B5
The “mAb binding (MFI)” value of the first is lower: 109000 for the first, 170000 for the second.

Compared with B6, B7 is lower in “mAb binding (MFI)” value: 413000 for the first, 216000 for the second.

First: B8
Second: B9
The “mAb binding (MFI)” value of the first is higher: 155000 for the first, 76900 for the second.
